Measured values as given in paper PMC2875008.
Where two headings read alike, the source gives them in different places.

Columns and labels:
hRad52 [1] = biological target: T1, hRad52 (Homo sapiens, UniProt P43351 1-418); assay: FRET titration
T1 sequence: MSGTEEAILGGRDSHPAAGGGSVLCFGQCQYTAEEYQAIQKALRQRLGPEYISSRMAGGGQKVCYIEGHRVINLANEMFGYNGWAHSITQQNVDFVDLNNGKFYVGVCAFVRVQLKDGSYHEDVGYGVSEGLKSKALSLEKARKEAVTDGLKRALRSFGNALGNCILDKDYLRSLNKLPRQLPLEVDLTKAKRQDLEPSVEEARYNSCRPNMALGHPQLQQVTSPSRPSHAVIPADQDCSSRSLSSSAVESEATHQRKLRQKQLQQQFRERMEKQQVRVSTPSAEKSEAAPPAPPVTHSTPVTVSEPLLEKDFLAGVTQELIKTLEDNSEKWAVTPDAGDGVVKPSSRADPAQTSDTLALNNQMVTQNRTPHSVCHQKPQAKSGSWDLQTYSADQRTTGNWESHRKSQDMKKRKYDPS

hRPA [2] = biological target: T2, hRPA (Homo sapiens, UniProt P27694;P15927;P35244 1-616;1-270;1-121); assay: FRET titration
hRad52 [3] = biological target: T1, hRad52; assay: EMSA
hRad52 1-212 [4] = biological target: T3, hRad52 1-212 (Homo sapiens, UniProt P43351 1-212); assay: FRET titration
T3 sequence: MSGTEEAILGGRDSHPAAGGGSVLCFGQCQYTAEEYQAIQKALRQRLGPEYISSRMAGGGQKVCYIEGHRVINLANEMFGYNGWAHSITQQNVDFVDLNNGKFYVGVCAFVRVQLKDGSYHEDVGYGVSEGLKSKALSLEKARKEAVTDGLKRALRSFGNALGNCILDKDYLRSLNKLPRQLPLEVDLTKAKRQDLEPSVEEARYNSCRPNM

hRad52 [5] = biological target: T1, hRad52; assay: FRET titration; remark: listed apart in the source
hRad52 1-212 [6] = biological target: T3, hRad52 1-212; assay: FRET titration; remark: listed apart in the source
hRPA [7] = biological target: T2, hRPA; assay: FRET titration; remark: listed apart in the source
hRad52 [8] = biological target: T1, hRad52; assay: FRET titration; remark: listed apart in the source

T2 sequence (P27694 whole entry, chain 1 of 3): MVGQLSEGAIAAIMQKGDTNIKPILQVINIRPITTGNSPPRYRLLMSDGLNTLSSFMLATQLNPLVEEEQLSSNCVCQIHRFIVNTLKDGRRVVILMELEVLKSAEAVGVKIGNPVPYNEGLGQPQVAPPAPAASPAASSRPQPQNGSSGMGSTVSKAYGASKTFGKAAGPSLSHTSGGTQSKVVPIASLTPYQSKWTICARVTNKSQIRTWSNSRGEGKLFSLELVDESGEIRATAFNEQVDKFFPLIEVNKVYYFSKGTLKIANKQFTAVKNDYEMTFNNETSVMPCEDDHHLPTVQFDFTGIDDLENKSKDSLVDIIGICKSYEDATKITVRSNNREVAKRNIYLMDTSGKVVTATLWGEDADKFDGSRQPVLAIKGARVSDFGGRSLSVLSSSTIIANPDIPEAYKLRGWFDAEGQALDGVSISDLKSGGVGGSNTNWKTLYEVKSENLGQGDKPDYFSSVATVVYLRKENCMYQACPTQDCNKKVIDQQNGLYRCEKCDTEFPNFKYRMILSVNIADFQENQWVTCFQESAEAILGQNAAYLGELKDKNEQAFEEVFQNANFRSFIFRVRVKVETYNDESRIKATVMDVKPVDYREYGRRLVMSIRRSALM
T2 sequence (P15927 whole entry, chain 2 of 3): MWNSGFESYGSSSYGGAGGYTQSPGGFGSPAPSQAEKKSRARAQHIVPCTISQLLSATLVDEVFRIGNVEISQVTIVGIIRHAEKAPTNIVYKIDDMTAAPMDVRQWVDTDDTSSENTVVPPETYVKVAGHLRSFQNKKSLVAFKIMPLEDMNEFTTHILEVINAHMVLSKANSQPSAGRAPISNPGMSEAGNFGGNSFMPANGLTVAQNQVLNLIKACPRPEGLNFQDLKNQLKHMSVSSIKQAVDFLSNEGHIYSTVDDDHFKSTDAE
T2 sequence (P35244 whole entry, chain 3 of 3): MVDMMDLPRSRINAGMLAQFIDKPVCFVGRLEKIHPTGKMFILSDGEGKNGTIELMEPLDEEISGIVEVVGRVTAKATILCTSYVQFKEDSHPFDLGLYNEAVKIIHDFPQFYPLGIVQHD

B1: poly(dT)-50 (ssDNA)
DNA: TTTTTTTTTTTTTTTTTTTTTTTTTTTTTTTTTTTTTTTTTTTTTTTTTT
Does B1 bind (hRad52 [1])?
Result: binds

B2: poly(dT)-30 (ssDNA)
DNA: TTTTTTTTTTTTTTTTTTTTTTTTTTTTTT
What does the source list for B2?
binding result (hRPA [2]): binds; binding result (hRad52 [3]): binds; binding result (hRad52 1-212 [4]): binds

B3: poly(dT)-60 (ssDNA)
DNA: TTTTTTTTTTTTTTTTTTTTTTTTTTTTTTTTTTTTTTTTTTTTTTTTTTTTTTTTTTTT
What does the source list for B3?
binding result (hRad52 [5]): binds; binding result (hRad52 1-212 [6]): binds; binding result (hRPA [7]): binds

B4: poly(dT)-39 (ssDNA)
DNA: TTTTTTTTTTTTTTTTTTTTTTTTTTTTTTTTTTTTTTT
Does B4 bind (hRad52 [1])?
Result: binds

B5: poly(dT)-22 (ssDNA)
DNA: TTTTTTTTTTTTTTTTTTTTTT
Does B5 bind (hRad52 [8])?
Result: binds
